The numbers were not newly measured in PMC4041429, which cites them from elsewhere.

Where only a bound is given, the exact number is not on record here.

The target in this data set is β clamp (Escherichia coli) (UniProt P0A988).

With β clamp (from UniProt P0A988), the Kd (commonly the concentration at which binding is half-saturated) was under 50 nM.
